# Measured values from patent US11202837B2, “Biological materials and uses thereof” (Antikor Biopharma Limited, priority 2014, dated 2021).
# “And” between values parts separate entries of the source, which are not always exact repeats. Equal values may be shown once.
# B1: scFv (TCT1067)-P5-C5 (conjugate)
# scFv: SGSGGSGQVQLVQSGAEVKKPGESLKISCKGSGYSFTSYWIAWVRQMPGKGLEYMGLIYPGDSDTKYSPSFQGQVTISVDKSVSTAYLQWSSLKPSDSAVYFCARHDVGYCTDRTCAAWPEWLGVWGQGTLVTVSSGGGGSGGGGSGGGGSQSVLTQPPSVSAAPGQKVTISCSGSSSNIGNNYVSWYQQLPGTAPKLLIYGHTNRPAGVPDRFSGSKSGTSASLAISGFRSEDEADYYCASWDYTLSGWVFGGGTKLTVLMASMTGGQQMG
# B2: scFv (TCT1067) (protein)
# scFv: B1 scFv
# Assays:
# [1] = test system: BT474 human breast carcinoma xenografts; assay: Tumour penetration in BT474 xenografts, immunohistochemistry 2 hrs post dose; format: in vivo, mouse; settings: 5 mg/kg single i.v. dose, SCID mice, BT474, payload detection (total ADC)
# Description: (§1) Mice. […] The animals were fed ad libitum water (reverse osmosis, 1 ppm Cl), and NIH 31 Modified and Irradiated Lab Diet® consisting of 18.0% crude protein, 5.0% crude fat, and 5.0% crude fiber. The mice were housed on irradiated Enrich-o'cobs™ Laboratory Animal Bedding in static microisolators on a 12-hour light cycle at 20-22° C. (68-72° F.) and 40-60% humidity. Charles River Discovery Services North Carolina (CR Discovery Services, who carried out this contracted R&D) specifically complies with the recommendations of the Guide for Care and Use of Laboratory Animals with respect to restraint, husbandry, surgical procedures, feed and fluid regulation, and veterinary care. The animal care and use program at CR Discovery Services is accredited by the Association for Assessment and Accreditation of Laboratory Animal Care International (AAALAC), which assures compliance with accepted standards for the care and use of laboratory animals.
# Therapeutic (test) Agents. […] All dosing solutions were stored at 4° C. until dosed. […] Treatment.
# [2] = Plasma pharmacokinetics in Sprague-Dawley rats (ELISA); format: in vivo, rat; settings: for Bioavailability (blood exposure, AUC, 24 hrs): mean AUC in anti-payload and anti-protein detection; for Elimination half-life (hrs) Total Antibody: plasma ELISA
# Description: Rats. Male Sprague-Dawley rats (sourced from Charles River, UK) were group housed in a temperature and light controlled facility on a 12 hour light/dark cycle with food and water available ad libitum. Rats selected for study inclusion were individually housed until completion of the study. All animals were subjected to health monitoring in accordance with the guidelines by the onsite home office registered veterinarian. All animal experimentation was covered under the UK Animals (Scientific Procedures) Act (1986) and EU directive 86/609/EEC. All such work was monitored by regular inspections of procedures and facilities by the on-site Veterinarian and UK Home Office inspectors. The study design required the surgical implantation of catheters into the jugular of male Sprague-Dawley rats.
# Rats were anaesthetised using the inhalation anaesthetic isoflurane and placed in dorsal recumbency. The right jugular vein was exposed and a loose ligature was placed caudally and the cranial end of vein was ligated. A small incision was made between the ligatures into which the catheter (polyethylene 50 tubing) was inserted. The catheter was secured in place by tying the loose ligature around the catheterised vessel. A small incision was made in the scapular region to serve as the exit site of the catheter. The catheter was subcutaneously tunneled and exteriorised through the scapular incision. Patency of the catheter was tested, and the catheter was filled with a locking solution (heparinised saline) and sealed with a stainless steel pin. Post-operative monitoring of animals was performed according to Home Office good practice guidelines. Intravenous dosing was via the tail vein.
# (§2) Therapeutic (test) Agents. All test agents were supplied as ready-to-dose dosing solutions. All dosing solutions were stored at 4° C. until dosed. All treatments were administered in a dosing volume scaled to the body weights of the individual animals to obtain the dosing concentration described in the treatment tables.
# Treatment (rats). On Day 1 of the study, rats were divided into groups of three animals (per test agent being evaluated), and dosing was initiated according to the treatment plan summarized in the tables below
# Sampling (rats). Serial venous blood samples (approx. 0.1-0.2 ml) were collected via the exteriorised jugular vein catheter at specified time points (0.5 to 72 hrs post dosing) and placed in heparinised containers. Prior to taking the blood samples the catheter was evacuated of heparinised saline to prevent dilution of the blood sample. Following each blood sample the volume of blood removed is replaced with an equal volume of heparinised saline via the catheter and sealed. Blood samples were centrifuged (5 minutes, 16,100 g, 4° C.) to separate the plasma. Plasma samples were transferred to fresh containers and promptly frozen and stored at −20° C. until used for analysis.
# (§3) Quantification of test agents in plasma. An ELISA was carried out as described in Example 31 The detecting antibodies were (a) Anti-T7 tag to detect the scFv (total antibody), (b) Anti-Human Fab-specific to detect trastuzumab (total antibody), (c) Anti-MMAF (Concortis), Anti-MMAE (Concortis), anti-DM1
# (§4) (Concortis) and anti-cemadotin (in-house mouse monoclonal antibody, Example 33 that also recognised P5C5 and AuristatinF), total ADC. The reference test agents were used to construct a calibration curve for which the plasma samples were compared to, in order to quantify the amount present. The concentration was plotted against time (average of three animals with standard error) and fitted to a 2-phase decay curve using GraphPad Prism to derive kinetic parameters.
# [3] = test system: BT474 human breast carcinoma xenografts; assay: Tumour growth inhibition or eradication in BT474 xenograft model; format: in vivo
# Description: as §1, with “care.” for “care. The animal care and use program at CR Discovery Services is accredited by the Association for Assessment and Accreditation of Laboratory Animal Care International (AAALAC), which assures compliance with accepted standards for the care and use of laboratory animals.”
# Tumor weight may be estimated with the assumption that 1 mg is equivalent to 1 mm^3 of tumor volume.
# [4] = Concentration reached and storage stability of purified conjugates in buffer; format: physicochemical; settings: after purification and concentration
# [5] = Body weight and tolerability in BT474 xenograft studies; format: in vivo, mouse; settings: BT474 xenograft study
# Source text: Treatment-Related Side Effects. Test animals were weighed Day 1. Animals were observed frequently for overt signs of any adverse, treatment-related side effects. Individual body weight loss was monitored every other day and any animal whose weight exceeded the limits for acceptable body weight loss was euthanized. Group mean body weight loss also was monitored as per protocol. Acceptable toxicity for the maximum tolerated dose (MTD) was defined as a group mean body weight loss of less than 20% during the test.
# HER2 [6] = target: T1, HER2 (Homo sapiens, UniProt P04626); assay: Rat urine analysed on a HER2-Biacore SPR chip; format: in vivo; settings: 10-fold concentrated urine, compared to free scFv samples
# Description: (A) A single i.v. dose was injected into male Sprague-Dawley rats at 4 mg/kg. Plasma samples were taken at time points indicated and analysed by ELISA using anti-protein detection (total protein, indicated by solid lines, closed symbols) and where relevant anti-drug detection (total ADC, indicated by dashed lines, open symbols). The SE of the mean of each group and experimental triplicates are shown. ADC scFv (TCT1067)-P5C5 (circles) (n=3) and scFv (TCT1067) (squares) (n=3). (B) 10-fold concentrated urine collected over 24 hours analysed on a HER2-Biacore SPR chip for the scFv (TCT1067)-injected rats, 3 animal samples. The scFv reference is shown. The bulk shifts in the urine samples are due to the concentration of urine components. (C) 10-fold concentrated urine collected over 24 hours analysed on a HER2-Biacore SPR chip for the scFv (TCT1067)-P5C5 conjugate-injected rats, 3 animal samples. The scFv (TCT1067)-P5C5 reference is shown. The bulk shifts in the urine samples are due to the concentration of urine components.
# The scFv (TCT1067)-P5C5 conjugate were detected in the plasma via its T7 tag (detecting total antibody) and via the payload (detecting total ADC). […] The urine from the treated animals was collected over 24 hours, concentrated 10-fold in a spin concentrator (MWCO-10 kDa) and dialysed against PBS. These samples, from three rats per group, were analysed on a Biacore SPR chip.
# [7] = Plasma pharmacokinetics in BALB/c mice (ELISA, total antibody and total ADC); format: in vivo, mouse; settings: for Bioavailability (blood exposure, AUC, 24 hrs) / Elimination half-life (hrs) Total Antibody: mice; for Bioavailability (blood exposure, AUC, 24 hrs): mean AUC in anti-payload and anti-protein detection; for Elimination half-life (hrs) Total Antibody: plasma ELISA
# Description: Mice. Female BALB/c mice (BALB/cAnNCrl, Charles River) were eight weeks old with body weights ranging from 15.9 to 21.9 grams at the beginning of the study. The animals were fed ad libitum water (reverse osmosis, 1 ppm Cl) and NIH 31 Modified and Irradiated Lab Diet® consisting of 18.0% crude protein, 5.0% crude fat, and 5.0% crude fiber. The mice were housed on irradiated Enrich-o'cobs™ Laboratory Animal Bedding in static microisolators on a 12-hour light cycle at 20-22° C. (68-72° F.) and at 40-60% humidity. Charles River Discovery Services North Carolina (CR Discovery Services, who carried out this contracted R&D) specifically complies with the recommendations of the Guide for Care and Use of Laboratory Animals with respect to restraint, husbandry, surgical procedures, feed and fluid regulation, and veterinary care. The Animal Care and Use program at CR Discovery Services is accredited by the Association for Assessment and Accreditation of Laboratory Animal Care International, which assures compliance with accepted standards for the care and use of laboratory animals.
# as §2
# Treatment (mice). On Day 1 of the study, mice were divided into groups each consisting of eighteen mice (per test agent being evaluated), and dosing was initiated according to the treatment plan summarized in the treatment tables. All doses were administered intravenously (i.v.) by tail vein injection as described in the tables below.
# Endpoint. The study endpoint occurred after the last sampling point, typically on Day 2 or 4, twenty-four or seventy-two hours post dose.
# Sampling (mice). Blood (full blood volume) was collected from three animals per treatment group per timepoint. Samples were collected from all animals via terminal cardiac puncture under isoflurane anesthesia. Once collected, blood samples were collected into collection tubes containing lithium heparin or K2EDTA as anticoagulants and were processed for plasma at each timepoint. Each plasma sample was stored at −80° C. until used for analysis.
# as §3, §4
# HER2 [8] = target: T1, HER2; assay: Biacore SPR binding to immobilised HER2; settings: immobilised HER2
# Method in brief: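 HER2 amine-coupled on CM5 or CM3 chips, Biacore T200. Free antibody (typically 5-0.6 μg/ml) and conjugates (20-2.5 μg/ml) injected 160 s at 30 μl/min, 900 s dissociation (3600 s at highest concentration); regeneration with 8M MgCl2. Kinetics compared with unmodified scFv.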
# [9] = Aggregation by HPLC size-exclusion chromatography; format: physicochemical
# Description: Aggregation can be tested by analytical size-exclusion HPLC measuring the percentage of high molecular weight material compared to the conjugate eluting at a retention time characteristic of a monomeric conjugate.
# Typically, 20 μg of protein was injected for analytical runs and 300 μg for semi-preparative runs.
# HER2 [10] = target: T1, HER2; settings: by mutagenesis, Schier R et al (1996); cited from earlier work
# [11] = single i.v. dose 4 mg/kg, male Sprague-Dawley rats
molecule,measurement,setting,value
B1,localisation in tumour sections at 2 hrs post-dosing,[1],localise throughout the tumour
same,"Bioavailability (blood exposure, AUC, 24 hrs)","[2]; rats, 1 × 4 mg/kg, Table 64",90.1 μghr/ml
same,Elimination half-life (hrs) Total ADC,"[2]; rats, 1 × 4 mg/kg, plasma ELISA anti-payload, Table 64",2.2085 h
same,Elimination half-life (hrs) Total Antibody,"[2]; rats, 1 × 4 mg/kg, Table 64",0.512 h
same,increase in bioavailability (AUC) over unmodified scFv,[2]; [11],4.5 fold
same,plasma clearance (in words),[2]; [11],clears more slowly than the unmodified fragment
same,stability in plasma (total antibody vs total ADC clearance lines),"[2]; single i.v. dose 4 mg/kg, rats",stable in plasma
same,volume of distribution compared to unmodified scFv,"[2]; single i.v. dose 4 mg/kg, rats",lower volume of distribution
same,tumour growth delay,[3]; 5 mg/kg dosing regimen,~20 days
same,tumour shrinkage compared with the trastuzumab ADC,[3]; scFv ADC dosed more frequently,more effectively
same,time stable in the buffer,[4],several months
same,"body weight, heavier than the IgG ADC group of mice",[5],up to 20%
same,tolerability from body weights (in words),[5],better tolerated
same,HER2 binding activity in urine collected over 24 hours,HER2 [6],comparable binding activity
B2,"Bioavailability (blood exposure, AUC, 24 hrs)","[2]; rats, 1 × 4 mg/kg, Table 64",20.46 μghr/ml
same,Elimination half-life (hrs) Total Antibody,"[2]; rats, 1 × 4 mg/kg, Table 64",0.8 h
same,plasma clearance (in words),[2]; [11],clears rapidly
same,"Bioavailability (blood exposure, AUC, 24 hrs)","[7]; 1 × 2 mg/kg, Table 61 (AF-C5)",8.13 μghr/ml
same,"Bioavailability (blood exposure, AUC, 24 hrs)","[7]; 1 × 2 mg/kg, Table 62",8.13 μghr/ml
same,Elimination half-life (hrs) Total Antibody,"[7]; 1 × 2 mg/kg, Table 61 (AF-C5)",1.05 h
same,Elimination half-life (hrs) Total Antibody,"[7]; 1 × 2 mg/kg, Table 62",1.05 h
same,"Bioavailability (blood exposure, AUC, 24 hrs)","[7]; 1 × 5 mg/kg, Table 57",8.12 μghr/ml
same,Elimination half-life (hrs) Total Antibody,"[7]; 1 × 5 mg/kg, Table 57",1.05 h
same,plasma clearance (in words),"[7]; single i.v. dose, female BALB/c mice (5 mg/kg MMAF-C5, P5C5; 2 mg/kg AF-C5, DM1)",clears rapidly
same,association rate,HER2 [8],3.9e+06 M⁻¹ s⁻¹ and 3.88e+06 M⁻¹ s⁻¹
same,dissociation rate,HER2 [8],3.7e-05 s⁻¹ and 3.69e-05 s⁻¹
same,% aggregate by HPLC-SEC (FIG. 71),[9]; scFv conjugation reaction with 5 molar equivalents of Auristatin F-C5 NHS (reactions 1 and 4),0%
same,% aggregate by HPLC-SEC (FIG. 71),[9]; scFv conjugation reaction with 10 molar equivalents of Auristatin F-C5 NHS (reactions 2 and 5),0%
same,% aggregate by HPLC-SEC (FIG. 71),[9]; scFv conjugation reaction with 25 molar equivalents of Auristatin F-C5 NHS (reactions 3 and 6),0%
same,increase of binding affinity over the anti-HER2 scFv of Example 27,HER2 [10],over 1000 fold
